Test results: paper PMC4548480, “Structures of the Ultra-High-Affinity Protein–Protein Complexes of Pyocins S2 and AP41 and Their Cognate Immunity Proteins from Pseudomonas aeruginosa” (Journal of Molecular Biology, 2015)

Molecular target: T1, pyocin S2 DNase domain (Pseudomonas aeruginosa, UniProt Q06584 556-688)
T1 construct: pyocin S2, Pseudomonas aeruginosa, residues 556-688 found in the crystal after crystallisation of the intact PyoS2-ImS2 complex with chymotrypsin; The fragment of PyoS2 in the crystal was unknown to the authors; The limits 556-688 are those found in the solved structure; also called PyoS2 DNase; PyoS2; source: crystallised in the presence of chymotrypsin
T1 sequence: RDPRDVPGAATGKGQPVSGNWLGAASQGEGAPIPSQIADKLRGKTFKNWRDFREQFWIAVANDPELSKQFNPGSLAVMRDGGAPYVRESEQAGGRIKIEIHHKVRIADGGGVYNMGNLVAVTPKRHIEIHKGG
Experiment: crystal structure; intact PyoS2-ImS2 complex crystallised with chymotrypsin (1:100); 0.2 M sodium bromide, 20% (w/v) PEG 3350, 0.1 M Bis-tris propane pH 6.5; 1.8 Å; four copies of the complex in the asymmetric unit
Conditions: both partners purified

B1: pyocin S2 immunity protein ImS2 (natural protein)
chain: MKSKISEYTEKEFLEFVKDIYTNNKKKFPTEESHIQAVLEFKKLTEHPSGSDLLYYPNENREDSPAGVVKEVKEWRASKGLPGFKAG
notes: immunity protein of pyocin S2 (ImS2), Pseudomonas aeruginosa, full length; the entirety of the immunity protein was present in the crystal
B1: binds.
